Test results from paper PMC13360575.

What follows are binders tested against chicken IgY (chicken) (assay: BLI; Octet, SAX (streptavidin) biosensors; recombinant Fabs against IgY; KD from a kinetic 1:1 model, global fit over multiple concentrations (partial fits averaged for 3 low-affinity Fabs)).

| Kd | koff | kon | Binder |
| --- | --- | --- | --- |
| 3.77 nM | 0.000398 s⁻¹ | 105000 M⁻¹ s⁻¹ | clone 2.1 Fab CB_01 (clonal burst) (Fab, V domains shown) VH: EVQLQESGPSLVKPSQTLSLTCSVTGDSITSGYWNWIRKFPGNKLEYMGYISYSGSTYYNPSLKSRISFTRDTSKNQYYLQLNSVTTEDTATYYCARDFDVWGAGTTVTVSS VL: DIVMTQSQKFMSTSVGDRVSVTCKASQNVGTNVAWSQQKPGQSPKALIYSASYRYSGVPDRFTGSGSGTDFTLTISNVQSEDLAEYFCQQYKSYPLTFGSGTKLEIK |
| 0.549 nM | 0.000119 s⁻¹ | 216000 M⁻¹ s⁻¹ | clone 2.1 Fab TA_13 (Fab, V domains shown) VH: EVQLQESGPSLVKPSQTLSLTCSVTGDSITSGYWNWIRKFPGNKLEYMGYISYSGSTYYNPSLKSRISITRDTSKNQYYLQLNSVTTEDTATYYCARDFDVWGAGTTVTVSS VL: DIVMTQSQKFMSTSVGDRVSVTCKASQNVGTNVGWFQQKPGQSPKALIYSASYRYSGVPDRFTGSGSGTDFTLTISNVQSEDLAEYFCHQYYSYPLTFGSGTKLEIK |
| 14.4 nM | 0.00168 s⁻¹ | 116000 M⁻¹ s⁻¹ | clone 2.1 Fab TA_15 (Fab, V domains shown) VH: EVQLQESGPSLVKPSQTLSLTCSVTGDSITSGYWNWIRKFPGNKLEYMGYISYSGSTYYNPSLKSRISITRDTSKNQYYLQLNSVTTEDTATYYCARDFDVWGAGTTVTVSS VL: DIVMTQSQKFMSTSVGDRVSVTCKASQNVGTNVAWYQQKPGQSPKALIFSASYRYSGVPDRFTGSGSGTDFTLTISNVQSEDLAEYFCQQYNSYPLTFGSGTKLEIK |
| 0.507 nM | 0.000123 s⁻¹ | 244000 M⁻¹ s⁻¹ | clone 2.1 Fab CB_02 (clonal burst) (Fab, V domains shown) VH: EVQLQESGPSLVKPSQTLSLTCSVTGDSITSGYWNWIRKFPGNKLEYMGYISYSGSTYYNPSLKSRISITRDTSKNQYYLQLNSVTTEDTATYYCGRDFDVWGAGTTVTVSS VL: DIVMTQSQKFMSTSVGDRVSVTCKASQNVGTNVGWYQQKPGQSPKALIYSASYRYSGVPDRFTGSGSGTDFTLTISNVQSEDLAEYFCQQYNSYPLTFGSGTKLEIK |
| 22.3 nM | 0.0034 s⁻¹ | 152000 M⁻¹ s⁻¹ | clone 2.1 Fab TA_10 (Fab, V domains shown) VH: EVQLQESGPSLVKPSQTLSLTCSVTGDSITSGYWNWIRRFPGNKLEYMGYISYSGSTYYNPSLKSRISITRDTSKNQYYLQLNSVTTEDTATYYCARDFDVWGAGTTVTVSS VL: DIVMTQSQKFMSTSVGDRVSVTCKASQNVGTNVAWYQQKPGQSPKALIYSASYRYSGVPDRFTGSGSGTDFTLTISNVQSEDLAEYFCQQYNSYPLTFGSGTKLEIK |
|  | 6.34e-05 s⁻¹ | 1.03e+06 M⁻¹ s⁻¹ | 2.1^hi Fab, high-affinity variant of clone 2.1 (Fab, V domains shown) VH: EVQLQESGPSLVKPSQTLSLTCSVTGASITSGYWNWIRKFPGNRLEYMGYISYSGGTYYNPSLKSRISITRDTSKNQYYLQLNSVTTEDTATYYCARDFDVWGAGTTVTVSS VL: DIVMTQSQKFMSTSVGDRVSVTCKASQNVGTNVGWFQQKPGQSPKSLIYSASYRYSGVPDRFTGSGSGTDFTLTISNVQSEDLAEYFCHQYYSYPLTFGSGTKLEIK |
| 1.49 nM | 0.000329 s⁻¹ | 221000 M⁻¹ s⁻¹ | clone 2.1 Fab TA_16 (Fab, V domains shown) VH: EVQLQESGPSLVKPSQTLSLTCSVTGDSITSGYWNWIRKFPGNKLEYMGYISYSGSTYYNPSLKSRISITRDTSKNQYYLQLNSVTTEDTATYYCARDFDVWGAGTTVTVSS VL: DIVMTQSQKFMSTSVGDRVSVTCKASQNVGTNVGWYQQKPGQSPKSLIFSASYRYSGVPDRFTGSGSGTDFTLTISNVQSEDLAEYFCQQYNSYPLTFGSGTKLEIK |
| 21.6 nM | 0.00331 s⁻¹ | 153000 M⁻¹ s⁻¹ | clone 2.1 Fab TA_11 (Fab, V domains shown) VH: EVQLQESGPSLVKPSQTLSLTCSVTGDSITSGYWNWIRKFPGNRLEYMGYISYSGSTYYNPSLKSRISITRDTSKNQYYLQLNSVTTEDTATYYCARDFDVWGAGTTVTVSS VL: DIVMTQSQKFMSTSVGDRVSVTCKASQNVGTNVAWYQQKPGQSPKALIYSASYRYSGVPDRFTGSGSGTDFTLTISNVQSEDLAEYFCQQYNSYPLTFGSGTKLEIK |
| 0.28 nM | 0.000203 s⁻¹ | 724000 M⁻¹ s⁻¹ | clone 2.1 Fab TA_27 (Fab, V domains shown) VH: EVQLQESGPSLVKPSQTLSLTCSVTGDSITSGYWNWIRKFPGNRLEYMGYISYSGSTYYNPSLKSRISITRDTSKNQYYLQLNSVTTEDTATYYCARDFDVWGAGTTVTVSS VL: DIVMTQSQKFMSTSVGDRVSVTCKASQNVGTNVGWFQQKPGQSPKSLIYSASYRYSGVPDRFTGSGSGTDFTLTISNVQSEDLAEYFCQQYSSYPLTFGSGTKLEIK |
| 3.81 nM | 0.000858 s⁻¹ | 225000 M⁻¹ s⁻¹ | clone 2.1 Fab TA_5 (Fab, V domains shown) VH: EVQLQESGPSLVKPSQTLSLTCSVTGASITSGYWNWIRKFPGNKLEYMGYISYSGSTYYNPSLKSRISITRDTSKNQYYLQLNSVTTEDTATYYCARDFDVWGAGTTVTVSS VL: DIVMTQSQKFMSTSVGDRVSVTCKASQNVGTNVAWYQQKPGQSPKALIYSASYRYSGVPDRFTGSGSGTDFTLTISNVQSEDLAEYFCQQYNSYPLTFGSGTKLEIK |
| 3.2 nM | 0.000412 s⁻¹ | 129000 M⁻¹ s⁻¹ | clone 2.1 Fab TA_25 (Fab, V domains shown) VH: EVQLQESGPSLVKPSQTLSLTCSVTGDSITSGYWNWIRKFPGNKLEYMGYISYSGSTYYNPSLKSRISITRDTSKNQYYLQLNSVTTEDTATYYCARDFDVWGAGTTVTVSS VL: DIVMTQSQKFMSTSVGDRVSVTCKASQNVGTNVAWYQQKPGQSPKALIYSASYRYSGVPDRFTGSGSGTDFTLTISNVQSEDLAEYFCHQYYSYPLTFGSGTKLEIK |
| 13.3 nM | 0.00133 s⁻¹ | 100000 M⁻¹ s⁻¹ | clone 2.1 Fab TA_23 (Fab, V domains shown) VH: EVQLQESGPSLVKPSQTLSLTCSVTGDSITSGYWNWIRKFPGNKLEYMGYISYSGSTYYNPSLKSRISITRDTSKNQYYLQLNSVTTEDTATYYCARDFDVWGAGTTVTVSS VL: DIVMTQSQKFMSTSVGDRVSVTCKASQNVGTNVAWYQQKPGQSPKALIYSASYRYSGVPDRFTGSGSGTDFTLTISNVQSEDLAEYFCHQYNSYPLTFGSGTKLEIK |
| 22.7 nM | 0.00408 s⁻¹ | 180000 M⁻¹ s⁻¹ | clone 2.1 Fab TA_12 (Fab, V domains shown) VH: EVQLQESGPSLVKPSQTLSLTCSVTGDSITSGYWNWIRKFPGNKLEYMGYISYSGSTYYNPSLKSRISITRDTSKNQYYLQLNSVTTEDTATYYCARDFDVWGAGTTVTVSS VL: DIVMTQSQKFMSTSVGDRVSVTCKASQNVGTNVAWFQQKPGQSPKALIYSASYRYSGVPDRFTGSGSGTDFTLTISNVQSEDLAEYFCQQYNSYPLTFGSGTKLEIK |
| 14.9 nM | 0.00124 s⁻¹ | 83500 M⁻¹ s⁻¹ | clone 2.1 Fab TA_22 (Fab, V domains shown) VH: EVQLQESGPSLVKPSQTLSLTCSVTGDSITSGYWNWIRKFPGNKLEYMGYISYSGSTYYNPSLKSRISITRDTSKNQYYLQLNSVTTEDTATYYCARDFDVWGAGTTVTVSS VL: DIVMTQSQKFMSTSVGDRVSVTCKASQNVGTNVAWYQQKPGQSPKALIYSASYRYSGVPDRFTGSGSGTDFTLTISNVQSEDLAEYFCQQYSSYPLTFGSGTKLEIK |
| 58.5 nM | 0.00803 s⁻¹ | 137000 M⁻¹ s⁻¹ | clone 2.1 Fab TA_26 (Fab, V domains shown) VH: EVQLQESGPSLVKPSQTLSLTCSVTGDSITSGYWNWIRKFPGNKLEYMGYISYSGSTYYNPSLKSRISITRDTSKNQYYLQLNSVTTEDTATYYCARDFDVWGAGTTVTVSS VL: DIVMTQSQKFMSTSVGDRVSVTCKASQNVGTNVAWYQQKPGQSPKALIYSASYRYSGVPDRFTGSGSGTDFTLTISNVQSEDLAEYFCQQYDSYPLTFGSGTKLEIK |
| 26 nM | 0.00226 s⁻¹ | 86700 M⁻¹ s⁻¹ | clone 2.1 Fab, unmutated (Fab, V domains shown) VH: EVQLQESGPSLVKPSQTLSLTCSVTGDSITSGYWNWIRKFPGNKLEYMGYISYSGSTYYNPSLKSRISITRDTSKNQYYLQLNSVTTEDTATYYCARDFDVWGAGTTVTVSS VL: DIVMTQSQKFMSTSVGDRVSVTCKASQNVGTNVAWYQQKPGQSPKALIYSASYRYSGVPDRFTGSGSGTDFTLTISNVQSEDLAEYFCQQYNSYPLTFGSGTKLEIK |
| 0.261 nM | 8.66e-05 s⁻¹ | 331000 M⁻¹ s⁻¹ | clone 2.1 Fab TA_19 (Fab, V domains shown) VH: EVQLQESGPSLVKPSQTLSLTCSVTGDSITSGYWNWIRKFPGNKLEYMGYISYSGSTYYNPSLKSRISITRDTSKNQYYLQLNSVTTEDTATYYCARDFDVWGAGTTVTVSS VL: DIVMTQSQKFMSTSVGDRVSVTCKASQNVGTNVGWFQQKPGQSPKSLIYSASYRYSGVPDRFTGSGSGTDFTLTISNVQSEDLAEYFCHQYYSYPLTFGSGTKLEIK |
| 22 nM | 0.00309 s⁻¹ | 140000 M⁻¹ s⁻¹ | clone 2.1 Fab TA_28 (Fab, V domains shown) VH: EVQLQESGPSLVKPSQTLSLTCSVTGDSITSGYWNWIRKFPGNKLEYMGYISYSGGTYYNPSLKSRISITRDTSKNQYYLQLNSVTTEDTATYYCARDFDVWGAGTTVTVSS VL: DIVMTQSQKFMSTSVGDRVSVTCKASQNVGTNVAWYQQKPGQSPKALIYSASYRYSGVPDRFTGSGSGTDFTLTISNVQSEDLAEYFCQQYNSYPLTFGSGTKLEIK |
| 6.25 nM | 0.00139 s⁻¹ | 223000 M⁻¹ s⁻¹ | clone 2.1 Fab TA_14 (Fab, V domains shown) VH: EVQLQESGPSLVKPSQTLSLTCSVTGDSITSGYWNWIRKFPGNKLEYMGYISYSGSTYYNPSLKSRISITRDTSKNQYYLQLNSVTTEDTATYYCARDFDVWGAGTTVTVSS VL: DIVMTQSQKFMSTSVGDRVSVTCKASQNVGTNVAWYQQKPGQSPKSLIYSASYRYSGVPDRFTGSGSGTDFTLTISNVQSEDLAEYFCQQYNSYPLTFGSGTKLEIK |
| 7.72 nM | 0.000911 s⁻¹ | 118000 M⁻¹ s⁻¹ | clone 2.1 Fab TA_24 (Fab, V domains shown) VH: EVQLQESGPSLVKPSQTLSLTCSVTGDSITSGYWNWIRKFPGNKLEYMGYISYSGSTYYNPSLKSRISITRDTSKNQYYLQLNSVTTEDTATYYCARDFDVWGAGTTVTVSS VL: DIVMTQSQKFMSTSVGDRVSVTCKASQNVGTNVAWYQQKPGQSPKALIYSASYRYSGVPDRFTGSGSGTDFTLTISNVQSEDLAEYFCQQYYSYPLTFGSGTKLEIK |
